Key:
human Mo-DCs [1] = experiment: Flow cytometry of cell surface markers on treated, LPS-matured Mo-DCs; format: cell-based; set-up: key to HLA-DR / CD40 / CD83 / CD86 / CD14 / CD1a / CCR7: (−) negligible; (+) low; (++) moderate; (+++) high
Protocol: Peripheral blood mononuclear cells (PBMCs) were obtained from buffy coat preparations belonging to healthy donors from the Blood and Tissue Bank (Barcelona, Spain) after Ficoll-Paque™ density centrifugation (GE Healthcare Bio-Sciences AB; Uppsala, Sweden). Monocytes were purified by two different methods: 1) Cells were plated at 1×10^6 cells/ml in 60 mm culture plates (Corning, Spain) in RPMI without serum and allowed to adhere for 2 h at 37° C. in 5% CO2. The non-adherent cells were removed by washing in PBS. […] 2) Cells were purified using colloidal super-paramagnetic microbeads conjugated with monoclonal mouse anti-human CD14 antibodies (MACS, Miltenyi Biotec, Auburn, Calif., or EasySep® Positive Selection Cocktail, StemCell Technologies, Grenoble, France). The purity of CD14^+ cells was tested by CD14 staining and flow cytometry analysis (>90% CD14^+ cells). Monocyte-derived DCs (Mo-DCs) were generated supplementing the monocyte cultures with complete RPMI 1640 medium plus GM-CSF (800 UI/ml) and IL-4 (500 UI/ml) (both from Gentaur, Kampenhout, Belgium) at day 0 and day 3 of culture. For DC maturation, at day 5 iDCs were further stimulated for 48 h with 5 μg/ml LPS (Escherichia coli 055.B5, Sigma L2880, Copenhagen, Denmark).
Cell surface phenotypes were analyzed using the following monoclonal antibodies: FITC-conjugated anti-HLA-DR (Immu-357), FITC-conjugated anti-CD83 (HB15a), FITC-conjugated anti-CD14 (RMO52), PE-conjugated anti-CD40 (MAB89), PE-conjugated anti-CD1a (BL6), PE-conjugated anti-CD80 (MAB104), PE-conjugated anti-CD86 (HA5.2B7) (all from Beckman-Coulter), Alexa Fluor 488-conjugated anti-CCR7 (TG8/CCR7, Biolegend, San Diego, Calif.), and the respective isotype controls from the same commercial sources. After washing with PBS, cells were subsequently stained with 3 μl MoAb/10^5 cells in 100 μl of FACS buffer (PBS containing 1% BSA and 0.1% sodium azide) for 20 min at room temp. Stained cells were analysed using a FACScalibur (Becton Dickinson). Mo-DCs were gated according to forward scatter (FSC) and side scatter (SSC) parameters. The results were analysed using CellQuestPro software (Becton Dickinson).
Both the different C4BP isoforms (α7β1, α7β0 and α6β0), and Factor H were added at 2, 5 and 10 μg/ml throughout Mo-DC differentiation, maturation, or both. Namely, for the differentiation assays the proteins were added at day 0 and replenished at day 3. For the maturation assays the proteins were added at day 5, either alone or combined with LPS. Finally, for the differentiation plus maturation assays the proteins were added at days 0, 3 and 5 (at the last time point, combined with LPS).

LPS-matured human Mo-DCs = experiment: DC cytokine secretion (Th1/Th2 Flow cytomix Multiplex); format: cell-based; set-up: key to IL-12 / IL-6 / IL-8 / IL-10 / TNF-α / IFN-γ: (−) negligible; (+) low; (++) moderate; (+++) high
Protocol: Concentrations of IL-12p70, TNF-α, IFN-γ, IL-10, IL-6 and IL-8, were determined from DC supernatants treated with the C4BP isoforms α7β1 and α7β0 using the Th1/Th2 Flow cytomix Multiplex kit (Bender-Medsystems, Viena, Austria), according to the manufacturer's instructions.

human Mo-DCs [2] = experiment: Scanning electron microscopy of Mo-DC surface morphology; format: cell-based; set-up: key to Dendrite density and lenght: (−) negligible; (+) low; (++) moderate; (+++) high
Protocol: Monocytes were seeded on glass slides covered with either poly-L-lysine (25 μg/ml) or fibronectin (42 μg/ml), cultured for 5 days in complete RPMI medium supplemented with 800 U/ml GM-CSF, 500 U/ml IL-4, and the C4BP isoforms α7β1, α7β0, or Factor H (10 μg/ml), and further stimulated with LPS for 48 hours in the same medium. The resulting DCs were fixed in 1% paraformaldehyde and 1.25% glutaraldehyde in cacodylate buffer for 2 h. Finally, the cells were post-fixed in 1% OsO4, and dehydrated with graded series of ethanol followed by acetone. After dehydration the cells were dried in a critical-point dryer and coated with gold before observation by scanning electron microscopy (Zeiss DSM940A).

allogeneic CD3+ T cells = experiment: Mixed leukocyte reaction ([3H]-thymidine incorporation); format: cell-based, human; set-up: key to Alloproliferation (T CD3^+): (−) negligible; (+) low; (++) moderate; (+++) high
Protocol: CD3^+ T cells (10^5/well) and C4BP-treated (α7β1 and α7β0), or Factor H-treated, and LPS-activated Mo-DCs were seeded in a 96-well round-bottom plate at various DC:T cell ratios (1:40, 1:80 and 1:160) and cultured in X-VIVO 15 medium (Biowittaker, Walkersville, Md.) supplemented with 100 μg/ml of streptomycin, 100 IU/ml of penicillin and 2 mM L-glutamine (all from Invitrogen) plus 2% Human AB Serum. Allospecific proliferation was measured after 5 days of incubation. At day 4, the […] [^3H]-thymidine (1 μCi/well, Perkin Elmer, Boston, Mass.) was added, followed by incubation for another 16 h. Labeled cells were then harvested onto glass-fiber filters with a Filtermate Harvester (Packard, Meriden, Conn.), and the T cell proliferation rate was determined by the amount of [^3H]-thymidine incorporation, which was measured in a TopCount NXT counter (Packard). Results are reported as the mean cpm±SD of thymidine incorporation in quadruplicate culture wells.

NSG immunodeficient mice = experiment: Human xeno-graft-versus-host disease (xeno-GvHD) model; format: in vivo; settings: co-transfer or late infusion of treated monocyte-derived DCs (5×10^5/mouse) with human PBMCs; versus PBMCs alone
Text: We assessed the in vivo tolerogenic or regulatory capacity of C4BP(β^−)-treated or Factor H-treated monocyte-derived DCs in a human xeno-graft-versus-host disease (xeno-GvHD) model (King et al. (2009) Clin. Exp. Immunol. 157: 104-118). Intravenous injection of human peripheral blood mononuclear cells (PBMCs; 10×10^6/mouse) induced xeno-GvHD in NSG immunodeficient mice (The Jackson Laboratory) (8-12 weeks of age) (median survival time 30-40 days).

[3] = surface marker, treated and LPS-induced DCs
[4] = treated throughout differentiation and maturation, LPS-matured
[5] = cytokine, treated and LPS-induced DCs
[6] = pre-treated at 2 μg/ml, matured with LPS

B1: C4BP α7β1: major C4BP isoform, 7 identical α-chains and 1 β-chain, purified from pooled human plasma (protein, UniProt P04003 49-597; P20851 18-252, looked up)
C4b-binding protein alpha …: NCGPPPTLSFAAPMDITLTETRFKTGTTLKYTCLPGYVRSHSTQTLTCNSDGEWVYNTFCIYKRCRHPGELRNGQVEIKTDLSFGSQIEFSCSEGFFLIGSTTSRCEVQDRGVGWSHPLPQCEIVKCKPPPDIRNGRHSGEENFYAYGFSVTYSCDPRFSLLGHASISCTVENETIGVWRPSPPTCEKITCRKPDVSHGEMVSGFGPIYNYKDTIVFKCQKGFVLRGSSVIHCDADSKWNPSPPACEPNSCINLPDIPHASWETYPRPTKEDVYVVGTVLRYRCHPGYKPTTDEPTTVICQKNLRWTPYQGCEALCCPEPKLNNGEITQHRKSRPANHCVYFYGDEISFSCHETSRFSAICQGDGTWSPRTPSCGDICNFPPKIAHGHYKQSSSYSFFKEEIIYECDKGYILVGQAKLSCSYSHWSAPAPQCKALCRKPELVNGRLSVDKDQYVEPENVTIQCDSGYGVVGPQSITCSGNRTWYPEVPKCEWETPEGCEQVLTGKRLMQCLPNPEDVKMALEVYKLSLEIEQLELQRDSARQSTLDKEL
C4b-binding protein beta chain: SDAEHCPELPPVDNSIFVAKEVEGQILGTYVCIKGYHLVGKKTLFCNASKEWDNTTTECRLGHCPDPVLVNGEFSSSGPVNVSDKITFMCNDHYILKGSNRSQCLEDHTWAPPFPICKSRDCDPPGNPVHGYFEGNNFTLGSTISYYCEDRYYLVGVQEQQCVDGEWSSALPVCKLIQEAPKPECEKALLAFQESKNLCEAMENFMQQLKESGMTMEELKYSLELKKAELKAKLL
In the case of B1, the “expression of surface markers (CD14, HLA-DR, CD40, CD80, CD83, CD86, CD1a)” value (human Mo-DCs [1]; treated throughout differentiation and maturation, LPS-matured, vs untreated mDC) is reported as “no effect”, the “release of cytokines (IL-12p70, IL-10, IL-8, IL-6, TNF-α, IFN-γ)” value (LPS-matured human Mo-DCs; pre-treated Mo-DCs matured with LPS, C4BP 2 μg/ml, Factor H 5 μg/ml) is reported as “the same cytokine levels than untreated Mo-DCs” and the “surface morphology of Mo-DCs” value (human Mo-DCs [2]; SEM after 48 h LPS maturation) is reported as “analogous appearance than untreated Mo-DCs”. The “allogeneic T cell proliferation” value (allogeneic CD3+ T cells; Mo-DCs pre-incubated and matured with LPS, DC:T 1:40, 1:80, 1:160, 5 days) was “maximal allogeneic T cell proliferation” and the survival time (NSG immunodeficient mice) was “no significant protection”.

B2: C4BP (β^−): C4BP isoforms lacking beta chain: C4BP (α7β0) or C4BP (α6β0) (protein, UniProt P04003 49-597, looked up)
C4b-binding protein alpha …: B1 C4b-binding protein alpha …
B2 was tested, and the “surface receptor CCR7 on Mo-DCs” value (human Mo-DCs [1]; flow cytometry (MFI), LPS-matured) was “consistent down-regulation”, the CCR7 (human Mo-DCs [1]; [3]) was “++” and the CD1a (human Mo-DCs [1]; [3]) was “+”. The CD14 (human Mo-DCs [1]; [3]) was “+”, the CD40 (human Mo-DCs [1]; [3]) was “++” and the CD83 (human Mo-DCs [1]; [3]) was “+”. For the same molecule, the CD86 (human Mo-DCs [1]; [3]) was “+”, the HLA-DR (human Mo-DCs [1]; [3]) was “+++” and the CD40 expression (human Mo-DCs [1]; [4]) was “unaltered”. For the same molecule, the HLA-DR expression (human Mo-DCs [1]; [4]) was “unaltered”, the IFN-γ (LPS-matured human Mo-DCs; [5]) was “−” and the IL-6 (LPS-matured human Mo-DCs; [5]) was “+”. For the same molecule, the IL-8 (LPS-matured human Mo-DCs; [5]) was “++”, the IL-10 (LPS-matured human Mo-DCs; [5]) was “+++” and the IL-12 (LPS-matured human Mo-DCs; [5]) was “−”. For the same molecule, the TNF-α (LPS-matured human Mo-DCs; [5]) was “+”, the “production of IL-10” value (LPS-matured human Mo-DCs; [6]) was “increased the production” and the “release of IFN-γ” value (LPS-matured human Mo-DCs; [6]) was “prevented the release”. The “release of IL-6” value (LPS-matured human Mo-DCs; [6]) was “reduced the release”, the “release of IL-8” value (LPS-matured human Mo-DCs; [6]) was “reduced the release” and the “release of IL-12p70” value (LPS-matured human Mo-DCs; [6]) was “prevented the release”. The “release of TNF-α” value (LPS-matured human Mo-DCs; [6]) was “prevented the release”, the “Dendrite density and lenght” value (human Mo-DCs [2]; morphology, treated and LPS-induced DCs) was “+” and the “Alloproliferation (T CD3^+)” value (allogeneic CD3+ T cells; functional assay, treated and LPS-induced DCs) was “+”. For the same molecule, the survival time (NSG immunodeficient mice) was “significantly prolonged survival time”.

— patent US10106589B2, “Compositions and methods for immunomodulation” (FUNDACIO INSTITUT D'INVESTIGACIO BIOMEDICA DE BELLVITGE …, priority 2011, dated 2018)
